The source of these data is the Immune Epitope Database (IEDB).

A value given as a limit tells only on which side of the number the result lay.

One test deals with HLA-B*44:02. As to the kind of experiment: IEDB peptide-MHC binding, purified MHC/competitive/radioactivity; filed as Kd, often an IC50 or EC50 that approximates it; ≥ and ≤ were set here for values at or beyond the usual limits of such assays.
Another test deals with HLA-B*44:03. Described as above. The settings on record: source organism: Dengue virus 4 Philippines/H241/1956.
The target of the next test is HLA-A*01:01. The description is as above.
In the next test the target is HLA-A*23:01. The description is as above.
A further test has as its target HLA-A*24:02. Described as above.
In another test the target is HLA-A*26:01. The test is described as above.
The target in another test is HLA-A*29:02. The description is as above.
In another test the target is HLA-A*30:02. The test is described as above.
For test [1], the target named is HLA-A*11:01. As to the kind of experiment: IEDB peptide-MHC binding, purified MHC/direct/fluorescence; filed as Kd, often an IC50 or EC50 that approximates it; ≥ and ≤ were set here for values at or beyond the usual limits of such assays.
The target of test [2] is HLA-A*03:01. As to the kind of experiment: IEDB peptide-MHC binding, purified MHC/competitive/radioactivity; filed as Kd, often an IC50 or EC50 that approximates it; ≥ and ≤ were set here for values at or beyond the usual limits of such assays. The settings on record: source organism: Vaccinia virus WR.
The target of test [3] is HLA-A*11:01. The description is as above. The settings on record: source organism: Vaccinia virus WR.
For another test, the target named is HLA-A*31:01. The description is as above. Conditions: source organism: Vaccinia virus WR.
In the next test the target is HLA-A*33:01. Described as above. The settings on record: source organism: Vaccinia virus WR.
For the next test, the target named is HLA-A*68:01. The test is described as above. The settings on record: source organism: Vaccinia virus WR.
Test [4] has as its target HLA-A*03:01. In words: IEDB peptide-MHC binding, purified MHC/direct/fluorescence; filed as Kd, often an IC50 or EC50 that approximates it; ≥ and ≤ were set here for values at or beyond the usual limits of such assays. Conditions: source organism: Bacillus licheniformis.
Another test addresses HLA-B*15:01. The description is as above. Conditions: source organism: Bacillus licheniformis.
The mark [5] stands for this setting: source organism: SARS coronavirus Tor2.
Where [6] appears, read: source organism: Lymphocytic choriomeningitis virus (strain Armstrong).
Where [7] appears, read: source organism: Influenza A virus (A/Wilson-Smith/1933(H1N1)).
Setting [8] is: source organism: Mammarenavirus guanaritoense.

What is called Kd is a measure of binding affinity in units of concentration. Turning to AEIQPQWIAA, the dissociation constant Kd amounted to 0.0672 µM with HLA-B*44:02 (source organism: Dengue virus 4 Philippines/H241/1956) and 1.12 µM with HLA-B*44:03.
For the sequence AEITPQAST, the equilibrium dissociation constant (Kd) with HLA-B*44:02 (source organism: Dengue virus 3 Martinique/1243/1999) was determined as 0.0165 µM.
As to AMVRMYIFF, the Kd in the test with HLA-A*01:01 (setting [5]) is 18.7 µM; in the test with HLA-A*23:01 (setting [5]), 0.214 µM; with HLA-A*24:02 (setting [5]), 4.46 µM; with HLA-A*26:01 (setting [5]), 7.44 µM; with HLA-A*29:02 (setting [5]), 0.452 µM; with HLA-A*30:02 (setting [5]) it was no less than 71.1 µM.
In the case of ASFYYIWKSY, the dissociation constant (Kd) was 3.11 µM with HLA-A*01:01 (setting [5]); no less than 32.1 µM in the test with HLA-A*23:01 (setting [5]); no less than 28.6 µM with HLA-A*24:02 (setting [5]); 2.1 µM with HLA-A*26:01 (setting [5]); 0.0714 µM in the test with HLA-A*29:02 (setting [5]); 0.000481 µM with HLA-A*30:02 (setting [5]).
Take CTFLLNKEMY: the dissociation constant Kd was 0.793 µM with HLA-A*01:01 (setting [5]); no less than 70 µM in the test with HLA-A*23:01 (setting [5]); no less than 70.3 µM with HLA-A*24:02 (setting [5]); 9.38 µM with HLA-A*26:01 (setting [5]); 0.789 µM in the test with HLA-A*29:02 (setting [5]); 0.412 µM with HLA-A*30:02 (setting [5]).
CWLVTNGSYL: the Kd in the test with HLA-A*23:01 (setting [6]) is 0.138 µM; in the test with HLA-A*24:02 (setting [6]) it was 0.841 µM; with HLA-A*29:02 (setting [6]) it was 2.89 µM.
For the sequence DQHGRMNYYW, the Kd was no less than 70.4 µM with HLA-A*01:01 (setting [7]); 1.11 µM in the test with HLA-A*23:01 (setting [7]); 1.47 µM with HLA-A*24:02 (setting [7]); 0.661 µM with HLA-A*26:01 (setting [7]); 2.17 µM with HLA-A*29:02 (setting [7]); no less than 69.8 µM with HLA-A*30:02 (setting [7]).
EFSSNVANY: the Kd in the test with HLA-A*01:01 (setting [5]) is 11.2 µM; in the test with HLA-A*23:01 (setting [5]) it was no less than 77.8 µM; with HLA-A*24:02 (setting [5]), no less than 32.2 µM; in the test with HLA-A*26:01 (setting [5]), 2.9 µM; with HLA-A*29:02 (setting [5]), 0.703 µM; with HLA-A*30:02 (setting [5]), 0.828 µM.
On to ERPAFGIQK, for which, in the test with HLA-A*11:01 [1] (source organism: Homo sapiens), the Kd stood at 17.5 µM.
For the sequence ETPHLMGWDY, the Kd was 0.301 µM in the test with HLA-A*01:01 (setting [5]); no less than 70 µM with HLA-A*23:01 (setting [5]); no less than 70.3 µM with HLA-A*24:02 (setting [5]); 0.00491 µM in the test with HLA-A*26:01 (setting [5]); 0.0927 µM with HLA-A*29:02 (setting [5]); 0.696 µM with HLA-A*30:02 (setting [5]).
Turning to EYPIIGDEL, the equilibrium dissociation constant (Kd) in the test with HLA-A*01:01 (setting [5]) is no less than 78.1 µM; with HLA-A*23:01 (setting [5]), 16.2 µM; with HLA-A*24:02 (setting [5]), 14.1 µM; in the test with HLA-A*26:01 (setting [5]), no less than 77.9 µM; with HLA-A*29:02 (setting [5]), 0.176 µM; with HLA-A*30:02 (setting [5]), 1.33 µM.
FSCGLSLQDY: the dissociation constant Kd in the test with HLA-A*03:01 [2] is 0.977 µM; in the test with HLA-A*11:01 [3] it was 0.269 µM; with HLA-A*29:02 (source organism: Vaccinia virus WR), no less than 71.4 µM; with HLA-A*31:01, 2.31 µM; in the test with HLA-A*33:01, 9.25 µM; with HLA-A*68:01, 0.263 µM.
For GTFLCANEY, the dissociation constant (Kd) in the test with HLA-A*01:01 (setting [5]) is 0.0974 µM; with HLA-A*23:01 (setting [5]) it was no less than 36.4 µM; in the test with HLA-A*24:02 (setting [5]), 11.4 µM; with HLA-A*26:01 (setting [5]), 0.262 µM; in the test with HLA-A*29:02 (setting [5]) it was 0.00383 µM; with HLA-A*30:02 (setting [5]) it was 0.000406 µM.
Turning to GVGAPTTTY, the results for the Kd with HLA-A*03:01 [4], with HLA-A*11:01 [1] (source organism: Bacillus licheniformis) and in the test with HLA-B*15:01 were 7.45 µM, 10.1 µM and 0.12 µM, respectively.
With GYRFFNKTL, the dissociation constant Kd with HLA-A*23:01 (setting [8]) was found to be 0.21 µM; with HLA-A*24:02 (setting [8]), 1.19 µM; in the test with HLA-A*29:02 (setting [8]) it was 3.59 µM.
Consider HTLSIHDGY, for which the Kd with HLA-A*01:01 (setting [5]) is 1.5 µM; with HLA-A*23:01 (setting [5]), no less than 77.8 µM; with HLA-A*24:02 (setting [5]) it was no less than 77.6 µM; with HLA-A*26:01 (setting [5]) it was 0.016 µM; with HLA-A*29:02 (setting [5]), 0.00179 µM; in the test with HLA-A*30:02 (setting [5]) it was 0.000411 µM.
For IFWRNTNPI, the equilibrium dissociation constant (Kd) is no less than 78.1 µM in the test with HLA-A*01:01 (setting [5]); 9.15 µM with HLA-A*23:01 (setting [5]); no less than 31.5 µM with HLA-A*24:02 (setting [5]); no less than 77.9 µM with HLA-A*26:01 (setting [5]); no less than 35.2 µM in the test with HLA-A*29:02 (setting [5]); no less than 78.9 µM with HLA-A*30:02 (setting [5]).
In the case of IMLVYCFLGY, the dissociation constant Kd in the test with HLA-A*01:01 (setting [5]) was no less than 31.5 µM; in the test with HLA-A*23:01 (setting [5]), no less than 70 µM; with HLA-A*24:02 (setting [5]), no less than 70.3 µM; with HLA-A*26:01 (setting [5]), no less than 42.7 µM; with HLA-A*29:02 (setting [5]), 0.00305 µM; with HLA-A*30:02 (setting [5]), 0.211 µM.
